Assay [1] deals with HCV envelope glycoprotein E2 (in lysate of HCV-infected Huh7.5 cells) (hepatitis C virus (strain not stated)) (UniProt Q99IB8).
Assay [2] shares this target. This is another data set of the same source.

From paper PMC3660260 come the findings set out here.

UniProt Q99IB8, sequence (Q99IB8 384-750): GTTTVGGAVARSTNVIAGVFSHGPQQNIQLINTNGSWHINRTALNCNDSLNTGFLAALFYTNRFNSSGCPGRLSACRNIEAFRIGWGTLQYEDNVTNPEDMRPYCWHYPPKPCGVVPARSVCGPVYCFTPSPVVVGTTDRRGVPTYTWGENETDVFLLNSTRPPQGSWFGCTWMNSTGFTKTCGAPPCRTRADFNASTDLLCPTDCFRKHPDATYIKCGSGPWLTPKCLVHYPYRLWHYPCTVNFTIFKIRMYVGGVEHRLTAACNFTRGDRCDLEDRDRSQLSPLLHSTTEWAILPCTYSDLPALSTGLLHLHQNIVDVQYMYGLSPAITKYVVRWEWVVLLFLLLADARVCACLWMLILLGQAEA

As for “griffithsin (from UniProt P84801 1-121) (natural protein)”, in assay [1], the EC50 for inhibition of replication of JFH-1 (genotype 2a) HCVcc in Huh7.5.1 cells amounted to 0.3 nM, the EC50 for inhibition of replication of the J6/JFH-1 HCVcc chimera (structural genes of genotype 2a J6) in Huh7.5.1 cells was determined as 14 nM and the EC50 for inhibition of replication of the TH/JFH-1 HCVcc chimera (structural genes of genotype 1b TH) in Huh7.5.1 cells was determined as 2.2 nM. For the same substance, the EC50 for inhibition of HCV JFH-1 (genotype 2a) in the HCVcc full-replication assay in Huh7.5.1 cells (HCV core protein in supernatant) in assay [2] came to 0.4 nM.
In the same order, the values of “scytovirin (from UniProt P86041 1-95) (natural protein)” are 3.2 nM, 50.8 nM, 57.5 nM and 16.9 nM.
